US20050222387A1, “Smac-peptides as therapeutics against cancer and autoimmune diseases” (Deutsches Krebsforschungzentrum Stiftung Des Oeffentlichen …, priority 2002, published 2005)

Test: Neurotoxicity by compound neurological score in the glioblastoma model
Type: in vivo, athymic mice
Settings: TRAIL alone, local administration
Experimental: Animal studies. 5×10^4 U87MG human glioblastoma cells were stereotactically implanted into the right striatum of athymic mice (CD1 nu/nu, Charles River, Sulzfeld, Germany). At day 7 or at day 7 and day 9, mice were locally treated with Apo2L/TRAIL (2 μg/4 μl buffer) and/or Smac (1 mg/4 μl buffer) or buffer only. Tumor cell volumes were measured at day 21 or 35 after tumor cell implantation as previously described. Neurological symptoms (alertness, behaviour, weight loss, focal neurological deficits) were evaluated daily and a compound score of all categories was formed (++: severe deficits, +: deficits, −: no relevant deficits). Statistical significance was assessed using ANOVA.

Substance: TRAIL: TNF-related apoptosis inducing ligand, death receptor ligand; recombinant human TRAIL (PeproTech)
- mice that developed neurological deficits: 2 of 6
